The values below come from patent US20220177587A1, “METHODS AND USES OF VARIANT CD80 FUSION PROTEINS AND RELATED CONSTRUCTS” (Alpine Immune Sciences, Inc., priority 2018, published 2022).

Assay [1] deals with human CTLA-4 (human) (UniProt P16410). Put plainly: flow cytometry, CHO cells expressing huCTLA4.
Assay [2] deals with human PD-L1 (human) (UniProt Q9NZQ7). Kind of assay: flow cytometry, CHO cells expressing huPD-L1. (In general: A flow cytometer gives signals particle by particle.)
Target sequence in this assay (Q9NZQ7 19-290): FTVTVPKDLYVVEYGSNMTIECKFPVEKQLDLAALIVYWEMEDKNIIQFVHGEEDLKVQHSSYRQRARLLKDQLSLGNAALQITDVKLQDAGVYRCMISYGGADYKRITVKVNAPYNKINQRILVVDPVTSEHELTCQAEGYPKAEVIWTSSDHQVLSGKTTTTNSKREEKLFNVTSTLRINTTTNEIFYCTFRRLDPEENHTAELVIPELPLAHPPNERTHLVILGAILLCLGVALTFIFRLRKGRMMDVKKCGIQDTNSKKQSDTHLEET
Assay [3] deals with CD28 (human) (UniProt P10747). Put plainly: flow cytometry, Jurkat/IL2 reporter cells (CD28).
Assay [4] deals with human CTLA-4 (human) (UniProt P16410). Put plainly: flow cytometry, CHO cells expressing huCTLA4, vs WT CD80 ECD-Fc (R&D).
Assay [5] has as its target human PD-L1 (human) (UniProt Q9NZQ7). Kind of assay: flow cytometry, CHO cells expressing huPD-L1, vs WT CD80 ECD-Fc (R&D).
Target sequence in this assay (Q9NZQ7 19-290): as above
Assay [6] deals with CD28 (human) (UniProt P10747). Kind of assay: flow cytometry, Jurkat/IL2 reporter cells (CD28), vs WT CD80 ECD-Fc (R&D).
In assay [7] the target is CD28 (human) (UniProt P10747). Put plainly: flow cytometry, Jurkat cells (CD28).
For assay [8], the target named is human CTLA-4 (human) (UniProt P16410). Kind of assay: flow cytometry, CHO cells expressing CTLA4.
Assay [9] has as its target human PD-L1 (human) (UniProt Q9NZQ7). Put plainly: flow cytometry, CHO cells expressing PD-L1.
Target sequence in this assay (Q9NZQ7 19-290): as above
The target is the same in assay [10]. Kind of assay: flow cytometry, MFI on PD-L1 over MFI on CD28.
Target sequence in this assay (Q9NZQ7 19-290): as above
In assay [11] the target is CD28 (human) (UniProt P10747).
Assay [12] deals with human PD-L1 (human) (UniProt Q9NZQ7).
Target sequence in this assay (Q9NZQ7 19-290 limits assumed): as the sequence (Q9NZQ7 19-290) above
The target of assay [13] is human CTLA-4 (human) (UniProt P16410). Put plainly: flow cytometry, CHO cells expressing huCTLA-4.
In assay [14] the target is human PD-L1 (human) (UniProt Q9NZQ7). Kind of assay: flow cytometry; PD-L1 MFI over CD28 MFI of the same protein.
Target sequence in this assay (Q9NZQ7 19-290): as above
The target is the same in assay [15]. Kind of assay: flow cytometry, CHO/huPD-L1 cells; vs WT CD80 ECD-Fc (Abcam).
Target sequence in this assay (Q9NZQ7 19-290): as above
Assay [16] concerns the target human CTLA-4 (human) (UniProt P16410). Kind of assay: flow cytometry, CHO/huCTLA-4 cells; vs WT CD80 ECD-Fc (Abcam).
For assay [17], the target named is CD28 (human) (UniProt P10747). Put plainly: flow cytometry, Jurkat cells (CD28); vs WT CD80 ECD-Fc (Abcam).
Assay [18] deals with human PD-L1 (huPD-L1), on stably transduced CHO cells (human) (UniProt Q9NZQ7). Kind of assay: flow cytometry; ratio of MFI on CHO/huPD-L1 cells to MFI on Jurkat (CD28) cells.
Sequence of human PD-L1 (huPD-L1), on stably transduced CHO cells (human) (Q9NZQ7 19-290): as above
Assay [19] addresses human CTLA-4 (huCTLA4), on stably transduced CHO cells (human) (UniProt P16410). Put plainly: flow cytometry on CHO/huCTLA4 cells; MFI relative to WT CD80 (CD80 WT IgV-Fc = 1.0).
In assay [20] the target is human PD-L1 (huPD-L1), on stably transduced CHO cells (human) (UniProt Q9NZQ7). Kind of assay: flow cytometry on CHO/huPD-L1 cells; MFI relative to WT CD80 (CD80 WT IgV-Fc = 1.0).
The target in assay [21] is CD28, endogenously expressed on Jurkat/IL2 reporter cells (human) (UniProt P10747). Put plainly: flow cytometry on Jurkat (CD28) cells; MFI relative to WT CD80 (CD80 WT IgV-Fc = 1.0).
For assay [22], the target named is human CTLA-4 (huCTLA4), on stably transduced CHO cells (human) (UniProt P16410). Put plainly: flow cytometry on CHO cells stably expressing huCTLA4, 33.3 nM Fc fusion, PE anti-human Fc.
Sequence of human CTLA-4 (huCTLA4), on stably transduced CHO cells (human) (P16410 36-223): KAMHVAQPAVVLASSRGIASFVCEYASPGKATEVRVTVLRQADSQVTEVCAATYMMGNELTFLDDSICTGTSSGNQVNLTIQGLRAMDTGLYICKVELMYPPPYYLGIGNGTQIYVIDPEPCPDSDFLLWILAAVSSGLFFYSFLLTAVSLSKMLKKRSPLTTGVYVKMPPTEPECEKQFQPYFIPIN
Assay [23] deals with human PD-L1 (huPD-L1), on stably transduced CHO cells (human) (UniProt Q9NZQ7). Put plainly: flow cytometry on CHO cells stably expressing huPD-L1, 33.3 nM Fc fusion, PE anti-human Fc.
In assay [24] the target is CD28, endogenously expressed on Jurkat/IL2 reporter cells (human) (UniProt P10747). Put plainly: flow cytometry on Jurkat/IL2 reporter cells (endogenous CD28), 33.3 nM Fc fusion, PE anti-human Fc.

Sequence of human CTLA-4 (human) (P16410 36-223): as above

B1: variant CD80 IgV-Fc E35D/T41S/M43V/M47I/L70M/A71G (Fc fusion)
chain: VIHVTKEVKEVATLSCGHNVSVEELAQTRIYWQKDKKMVLSMVSGDINIWPEYKNRTIFDITNNLSIVIMGLRPSDEGTYECVVLKYEKDAFKREHLAEVTLSVKAD
For B1, the MFI at 33.3 nM came to 249000 MFI in assay [1], 13000 MFI in assay [2] and 2700 MFI in assay [3]. Besides, the Fold change to WT CD80 in assay [4] worked out at 1.59 fold; in [5] it was 1.09 fold; in assay [6], 0.15 fold.

B2: CD80 E35D/M47V/N48K/V68M/A71G/L85M IgV-Fc (Fc fusion)
chain: VIHVTKEVKEVATLSCGHNVSVEELAQTRIYWQKDKKMVLTMMSGDVKIWPEYKNRTIFDITNNLSIMILGLRPSDEGTYECVVMKYEKDAFKREHLAEVTLSVKAD
As to B2, the Fold change to WT CD80 worked out at 9.6 fold in [7], 9.5 fold in [8] and 442 fold in assay [9]. The MFI at 33.3 nM in assay [7] was 302 MFI; in assay [8], 16600 MFI; in assay [9], 22800 MFI. Moreover, the Ratio of PDL1:CD28 in [10] was 75.4.

B3: variant CD80 IgV-Fc Q27H/E35D/M47I/L85Q/D90G (Fc fusion)
chain: VIHVTKEVKEVATLSCGHNVSVEELAHTRIYWQKDKKMVLTMMSGDINIWPEYKNRTIFDITNNLSIVILALRPSDEGTYECVVQKYEKGAFKREHLAEVTLSVKAD
For the molecule B3, the figures for the MFI at 33.3 nM in assay [1], in assay [2] and in assay [3] were 258000 MFI, 30700 MFI and 3510 MFI, respectively. Besides, the Fold change to WT CD80 in assay [4] was found to be 1.64 fold; in [5], 2.58 fold; in [6] it was 0.19 fold.

B4: variant CD80 IgV-Fc E35D/D46E/M47V/V68M/D90G/K93E (Fc fusion)
chain: VIHVTKEVKEVATLSCGHNVSVEELAQTRIYWQKDKKMVLTMMSGEVNIWPEYKNRTIFDITNNLSIMILALRPSDEGTYECVVLKYEKGAFEREHLAEVTLSVKAD
As for B4, the MFI at 33.3 nM in assay [1] worked out at 273000 MFI; in assay [2], 71900 MFI; in assay [3], 27100 MFI. In addition, the Fold change to WT CD80 in [4] amounted to 1.74 fold; in assay [5], 6.06 fold; in assay [6] it was 1.5 fold.

B5: variant CD80 IgV-Fc R29H/E35D/M43V/M47I/I49V (Fc fusion)
chain: VIHVTKEVKEVATLSCGHNVSVEELAQTHIYWQKDKKMVLTMVSGDINVWPEYKNRTIFDITNNLSIVILALRPSDEGTYECVVLKYEKDAFKREHLAEVTLSVKAD
Turning to B5, the MFI at 33.3 nM in [1] is 4690 MFI; in assay [2], 1590 MFI; in assay [3], 336 MFI. The figures for the Fold change to WT CD80 in assay [4], in assay [5] and in assay [6] were 0.03 fold, 0.13 fold and 0.02 fold, respectively.

B6: variant CD80 IgV-Fc E35D/M47L/A71G/L85M/F92Y (Fc fusion)
chain: VIHVTKEVKEVATLSCGHNVSVEELAQTRIYWQKDKKMVLTMMSGDLNIWPEYKNRTIFDITNNLSIVILGLRPSDEGTYECVVMKYEKDAYKREHLAEVTLSVKAD
For B6, the MFI at 33.3 nM worked out at 216000 MFI in assay [1], 46700 MFI in assay [2] and 2460 MFI in assay [3]. For the same molecule, the Fold change to WT CD80 in assay [4] is 1.37 fold; in [5] it was 3.93 fold; in assay [6], 0.14 fold.

B7: variant CD80 IgV-Fc E35D/M47V (Fc fusion)
chain: VIHVTKEVKEVATLSCGHNVSVEELAQTRIYWQKDKKMVLTMMSGDVNIWPEYKNRTIFDITNNLSIVILALRPSDEGTYECVVLKYEKDAFKREHLAEVTLSVKAD
Turning to B7, the IL-2 luciferase reporter, fold increase over WT CD80-IgV-Fc at 5.0 nM in assay [11] and in assay [12] was 4.7 fold throughout. Also, the MFI at 33.3 nM in [2] came out at 6800 MFI; in assay [13] it was 44600 MFI; in assay [3], 501 MFI; in assay [22], 20900 MFI; in [23], 2940 MFI; in assay [24], 461 MFI. The Ratio of PDL1:CD28 in [14] was determined as 13.6; in [18], 6. Further, the Fold change to WT CD80 in assay [15] came to 53.1 fold; in [16], 1.1 fold; in assay [17], 0.7 fold; in assay [19], 10.9 fold; in assay [20], 41.7 fold; in assay [21] it was 7 fold.

B8: variant CD80 IgV-Fc E35D/M47I/T62S/L85Q (Fc fusion)
chain: VIHVTKEVKEVATLSCGHNVSVEELAQTRIYWQKDKKMVLTMMSGDINIWPEYKNRTIFDISNNLSIVILALRPSDEGTYECVVQKYEKDAFKREHLAEVTLSVKAD
With B8, the MFI at 33.3 nM was 301000 MFI in assay [1], 45000 MFI in assay [2] and 1760 MFI in assay [3]. For the same molecule, the figures for the Fold change to WT CD80 in assay [4], in assay [5] and in assay [6] were 1.91 fold, 3.79 fold and 0.1 fold, respectively.

B9: variant CD80 IgV-Fc E35D/M47I/L85Q/D90G (Fc fusion)
chain: VIHVTKEVKEVATLSCGHNVSVEELAQTRIYWQKDKKMVLTMMSGDINIWPEYKNRTIFDITNNLSIVILALRPSDEGTYECVVQKYEKGAFKREHLAEVTLSVKAD
As to B9, the results for the MFI at 33.3 nM in assay [1], in assay [2] and in assay [3] were 248000 MFI, 35700 MFI and 4100 MFI, respectively. Besides, the Fold change to WT CD80 in assay [4] was determined as 1.57 fold; in [5], 3.01 fold; in assay [6] it was 0.23 fold.

B10: CD80 E35D/M47L/Y53F/V68M/A71G/K93R/E95V IgV-Fc (Fc fusion)
chain: VIHVTKEVKEVATLSCGHNVSVEELAQTRIYWQKDKKMVLTMMSGDLNIWPEFKNRTIFDITNNLSIMILGLRPSDEGTYECVVLKYEKDAFRRVHLAEVTLSVKAD
For the molecule B10, the Fold change to WT CD80 in assay [7] is 12.2 fold; in assay [8], 9.1 fold; in [9], 486 fold. Further, the MFI at 33.3 nM in assay [7] stood at 383 MFI; in assay [8], 16000 MFI; in assay [9] it was 25000 MFI. Moreover, in assay [10], the Ratio of PDL1:CD28 came to 65.3.

B11: variant CD80 IgV-Fc E35D/D46E/M47V/N63D/L85Q (Fc fusion)
chain: VIHVTKEVKEVATLSCGHNVSVEELAQTRIYWQKDKKMVLTMMSGEVNIWPEYKNRTIFDITDNLSIVILALRPSDEGTYECVVQKYEKDAFKREHLAEVTLSVKAD
For the molecule B11, the MFI at 33.3 nM worked out at 274000 MFI in assay [1], 69800 MFI in assay [2] and 1330 MFI in assay [3]. The Fold change to WT CD80 in assay [4] came to 1.74 fold; in assay [5], 5.88 fold; in assay [6] it was 0.07 fold.

B12: variant CD80 IgV-Fc Q33L/E35D/M47I/N48D/A71G (Fc fusion)
chain: VIHVTKEVKEVATLSCGHNVSVEELAQTRIYWLKDKKMVLTMMSGDIDIWPEYKNRTIFDITNNLSIVILGLRPSDEGTYECVVLKYEKDAFKREHLAEVTLSVKAD
Consider B12, for which the values for the MFI at 33.3 nM in [1], in assay [2] and in [3] were 117000 MFI, 31200 MFI and 644 MFI, respectively. The results for the Fold change to WT CD80 in assay [4], in [5] and in assay [6] were 0.74 fold, 2.62 fold and 0.04 fold, respectively.

B13: variant CD80 IgV-Fc E35D/M47V/V68M/L85Q/K89N (Fc fusion)
chain: VIHVTKEVKEVATLSCGHNVSVEELAQTRIYWQKDKKMVLTMMSGDVNIWPEYKNRTIFDITNNLSIMILALRPSDEGTYECVVQKYENDAFKREHLAEVTLSVKAD
Turning to B13, the IL-2 luciferase reporter, fold increase over WT CD80-IgV-Fc at 5.0 nM in assay [11] and in [12] was 7.4 fold throughout. The figures for the MFI at 33.3 nM in [2], in assay [13] and in [3] were 12100 MFI, 30300 MFI and 246 MFI, respectively. For the same molecule, the Ratio of PDL1:CD28 in [14] came out at 49.1. The Fold change to WT CD80 worked out at 94.4 fold in assay [15], 0.7 fold in [16] and 0.3 fold in assay [17].
